Experimental findings from patent US20260139239 are described below.

For series [1], the target named is T1, Fluorogenic peptide substrate ENLYFQEGGK with E at P1'.
T1 chain: ENLYFQEGGK

Series [2] addresses T2, Fluorogenic peptide substrate ENLYFQRGGK with R at P1'.
T2 chain: ENLYFQRGGK

Series [3] addresses T3, Fluorogenic peptide substrate ENLYFQIGGK with I at P1'.
T3 chain: ENLYFQIGGK

For series [4], the target named is T4, Fluorogenic peptide substrate ENLYFQLGGK with L at P1'.
T4 chain: ENLYFQLGGK

The target in series [5] is T5, Fluorogenic peptide substrate ENLYFQVGGK with V at P1'.
T5 chain: ENLYFQVGGK

The target of series [6] is T6, Fluorogenic peptide substrate ENLYFQGGGK with G at P1'.
T6 chain: ENLYFQGGGK

For series [7], the target named is T7, Fluorogenic peptide substrate ENLYFQKGGK with K at P1'.
T7 chain: ENLYFQKGGK

Series [8] deals with T8, Fluorogenic peptide substrate ENLYFQTGGK with T at P1'.
T8 chain: ENLYFQTGGK

B1: TEV protease variant P1-M218F (SEQ ID NO:1 with Q74L, S135G, I138T, S153N, R203G and M218F) (protein)
chain: GESLFKGPRDYNPISSSICHLTNESDGHTTSLYGIGFGPFIITNKHLFRRNNGTLLVQSLHGVFKVKDTTTLQLHLVDGRDMIIIRMPKDFPPFPQKLKFREPQREERICLVTTNFQTKSMSSMVSDTSCTFPSGDGTFWKHWIQTKDGQCGNPLVSTRDGFIVGIHSASNFTNTNNYFTSVPKNFMELLTNQEAQQWVSGWGLNADSVLWGGHKVFFNKPEEPFQPVKEATQLMN
As to B1, the Km (Michaelis Menten kinetics, fluorogenic peptide cleavage) came to 1.5 µM in series [1]; 14.5 µM in series [2]; 5.3 µM in series [3]; 2.2 µM in series [4]; 2.5 µM in series [5]; 2.9 µM in series [6]. Moreover, the values for the Km (Michaelis Menten kinetics, fluorogenic peptide cleavage) in series [7] and in series [8] were 7.4 µM and 1.1 µM, respectively.

B2: TEV protease double mutant DM (SEQ ID NO:1 with S153N and R203G) (protein)
chain: GTHHHHHHGSGSGTGESLFKGPRDYNPISSSICHLTNESDGHTTSLYGIGFGPFIITNKHLFRRNNGTLLVQSLHGVFKVKDTTTLQQHLVDGRDMIIIRMPKDFPPFPQKLKFREPQREERICLVTTNFQTKSMSSMVSDTSCTFPSSDGIFWKHWIQTKDGQCGNPLVSTRDGFIVGIHSASNFTNTNNYFTSVPKNFMELLTNQEAQQWVSGWGLNADSVLWGGHKVFMNKPEEPFQPVKEATQLMN
With B2, the Km (Michaelis Menten kinetics, fluorogenic peptide cleavage) in series [1] came to 41 µM; in series [2] it was 47.2 µM; in series [3], 45.9 µM; in series [4] it was 23.2 µM; in series [5], 45.8 µM; in series [6], 13.7 µM. The Km (Michaelis Menten kinetics, fluorogenic peptide cleavage) in series [7] worked out at 13.8 µM; in series [8], 7 µM.
